Nine molecules from patent US20240360245A1 (Daiichi Sankyo, published 2024) can be followed below.

Broadly, the Kd is the concentration at which binding is half-saturated.

Experiment [1] has as its target human GARP expressed on cells (GARP-transfected HEK-293T cells; endogenous on L428 cells and activated Treg) (human) (UniProt Q14392). Kind of experiment: flow cytometry on CD3/CD28 bead-activated human PBMC gated on CD4-positive cells, FITC-labeled anti-IgG secondary antibody against PE anti-Foxp3.
For experiment [2] the target is unchanged. The experiment can be described thus: flow cytometry on anti-CD3/anti-CD28 activated human PBMC, Alexa Fluor 647-labeled antibody against PE anti-Foxp3; the panel Antibody not-added prints 0.18. In general terms: Flow cytometry measures light scatter and fluorescence of single cells or particles in a stream.
Experiment [3] shares this target. Kind of experiment: flow cytometry on anti-CD3/anti-CD28 activated human PBMC, Alexa Fluor 647-labeled antibody against PE anti-Foxp3; the panel Antibody not-added prints 0.13.
The target in experiment [4] is T1, recombinant human GARP (R&D Systems, catalog number 6055-LR) (human, UniProt Q14392 20-627).
T1 construct: Bought soluble protein; In the phage panning and Fab screening it was in part biotinylated; also called antigen
T1 sequence: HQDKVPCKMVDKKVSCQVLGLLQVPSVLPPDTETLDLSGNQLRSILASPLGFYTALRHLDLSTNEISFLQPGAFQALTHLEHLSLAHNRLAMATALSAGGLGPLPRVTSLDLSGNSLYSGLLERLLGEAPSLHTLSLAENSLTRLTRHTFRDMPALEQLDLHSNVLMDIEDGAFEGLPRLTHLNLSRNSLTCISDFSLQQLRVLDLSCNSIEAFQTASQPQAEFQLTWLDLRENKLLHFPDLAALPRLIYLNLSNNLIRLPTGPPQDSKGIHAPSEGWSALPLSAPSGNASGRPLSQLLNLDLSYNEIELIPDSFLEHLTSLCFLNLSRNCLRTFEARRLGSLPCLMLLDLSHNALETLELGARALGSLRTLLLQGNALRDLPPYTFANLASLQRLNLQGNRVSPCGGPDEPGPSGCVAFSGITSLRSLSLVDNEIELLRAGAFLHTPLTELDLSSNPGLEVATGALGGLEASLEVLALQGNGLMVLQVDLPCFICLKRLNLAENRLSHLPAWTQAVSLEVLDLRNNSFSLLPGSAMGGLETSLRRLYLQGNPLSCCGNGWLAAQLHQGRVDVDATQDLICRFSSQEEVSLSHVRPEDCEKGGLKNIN
The experiment can be described thus: SPR (Biacore T200), antibody captured on Protein A, recombinant human GARP as analyte, 1:1 fit. How it is done:
The dissociation constant between the c151D or c198D produced in Example 6)-4 and human GARP was evaluated by using Biacore T200 (GE Healthcare Bioscience), according to a capture method, which comprises capturing the antibody as a ligand with the immobilized Protein A and then analyzing the dissociation constant using an antigen (recombinant human GARP: R&D Systems) as an analyte. HBS-EP+ (manufactured by GE Healthcare Bioscience) was used as a running buffer, and a Protein A Sensor Chip (manufactured by GE Healthcare Bioscience) was used as a sensor chip.
The human chimeric antibody (1 μg/mL) was added onto the chip at a rate of 10 μL/min for 20 seconds, and a dilution series solution (8 to 128 nM) of the antigen was then added at a flow rate of 30 μl/min for 120 seconds. Subsequently, the dissociation was monitored for 480 seconds. As a regeneration solution, Glycine 1.5 (manufactured by GE Healthcare Bioscience) was added at a flow rate of 20 μl/min for 30 seconds.
1:1 Fitting models were used in data analysis, and the association rate constant ka, the dissociation rate constant kd, and the dissociation constant (KD; KD=kd/ka) were calculated.
(In general: SPR reads the build-up and loss of mass on a sensor chip optically.)

Experiment [5] deals with T1, recombinant human GARP (R&D Systems, …). The experiment can be described thus: SPR (Biacore T200), antibody captured on Protein A, GARP antigen as analyte, 1:1 fit. Here is the method:
The dissociation constant between each of the humanized anti-human GARP antibodies h151D-H1L1, h151D-H4L4 and h198D-H3L4 produced in Example 7)-10 and GARP was evaluated by using Biacore T200 (GE Healthcare Bioscience), according to a capture method, which comprises capturing the antibody as a ligand by the immobilized Protein A and then analyzing the dissociation constant using an antigen as an analyte. HBS-EP+ (manufactured by GE Healthcare Bioscience) was used as a running buffer, and a Protein A Sensor Chip (manufactured by GE Healthcare Bioscience) was used as a sensor chip.
The human chimeric antibody (1 μg/mL) was added onto the chip at a rate of 10 μL/min for 20 seconds, and a dilution series solution (8 to 128 nM) of the antigen was added at a flow rate of 30 μl/min for 120 seconds. Subsequently, the dissociation was monitored for 480 seconds. As a regeneration solution, Glycine 1.5 (manufactured by GE Healthcare Bioscience) was added at a flow rate of 20 μl/min for 30 seconds.
1:1 Fitting model was used in data analysis, and the association rate constant ka, the dissociation rate constant kd, and the dissociation constant (KD; KD=kd/ka) were calculated.

The target of experiment [6] is T2, human GARP expressed on cells (GARP-transfected HEK-293T cells; endogenous on L428 cells and activated Treg) (human, UniProt Q14392 20-662).
T2 construct: The transfected cells carry a human GARP cDNA clone (Origene) in pcDNA3.1(+); also called hGARP; endogenously expressed GARP
T2 sequence: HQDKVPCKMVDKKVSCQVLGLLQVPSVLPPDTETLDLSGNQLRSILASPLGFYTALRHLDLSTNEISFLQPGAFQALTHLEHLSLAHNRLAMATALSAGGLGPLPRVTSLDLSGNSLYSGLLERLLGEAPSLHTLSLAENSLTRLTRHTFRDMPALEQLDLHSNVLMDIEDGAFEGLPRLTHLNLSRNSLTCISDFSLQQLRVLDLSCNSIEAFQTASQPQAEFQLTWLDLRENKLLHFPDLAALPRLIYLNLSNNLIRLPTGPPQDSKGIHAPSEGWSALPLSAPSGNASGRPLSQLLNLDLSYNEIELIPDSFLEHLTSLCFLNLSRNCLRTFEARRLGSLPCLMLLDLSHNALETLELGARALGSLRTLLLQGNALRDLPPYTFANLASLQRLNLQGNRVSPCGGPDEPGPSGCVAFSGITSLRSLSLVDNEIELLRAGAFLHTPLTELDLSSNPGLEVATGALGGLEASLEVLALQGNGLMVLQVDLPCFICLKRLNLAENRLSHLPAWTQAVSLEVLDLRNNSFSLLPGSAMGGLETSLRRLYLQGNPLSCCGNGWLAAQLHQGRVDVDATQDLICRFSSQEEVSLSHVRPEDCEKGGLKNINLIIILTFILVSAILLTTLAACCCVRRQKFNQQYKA
The experiment can be described thus: flow cytometry on CD3/CD28 bead-activated human PBMC gated on CD4-positive cells, FITC-labeled anti-IgG secondary antibody against PE anti-Foxp3.

Experiment [7] deals with T1, recombinant human GARP (R&D Systems, …). The experiment can be described thus: ELISA on plate-coated human GARP (1 ug/mL), 50 nM antibody, HRP anti-human Fc, chemiluminescence. How it is done:
The plate was washed with the ELISA buffer three times. […] On the other hand, 100 μL of HRP-labeled anti-mouse Fc antibody (R&D Systems), which had been 5000-fold diluted with PBS, was added to the wells treated with mouse anti-GARP antibody and mouse IgG. The plate was incubated at room temperature for 1 hour with mixing.
In general terms: In an ELISA, binding on a coated surface is turned into a signal by an enzyme label.

Experiment [8] shares this target. Kind of experiment: ELISA, Fab in E. coli culture supernatant on coated or NeutrAvidin-captured biotinylated GARP. Here is the method:
50 μL GARP, which had been diluted to 2 μg/mL with PBS (0.01 M phosphate buffered saline (pH 7.4) containing 0.138 M sodium chloride and 0.0027 M potassium chloride; Sigma-Aldrich), was added to each well of a 384-well Maxi-sorp plate (Black, Nunc), and it was then incubated overnight at 4° C. for coating the plate. Alternatively, 50 μL of NeutrAvidin (Life Technologies) which had been diluted to 1 μg/mL with PBS was added to such a 384-well Maxi-sorp plate for coating the plate (by incubating overnight at 4° C.). Thereafter, the plate was washed with an ELISA buffer (PBS (Sigma-Aldrich) supplemented with 0.05% Tween-20 (Bio-RAD)) three times, and biotinylated GARP was then added thereto (1 pmol/50 μL PBS/well), followed by incubation at room temperature for 1 hour with mixing. The plate was washed with ELISA buffer three times, was then blocked with Blocker Casein (Thermo Scientific), and was further washed with the ELISA buffer three times. Thereafter, a culture supernatant containing Fab produced by Escherichia coli was added, and the plate was then incubated at room temperature for 1 hour with mixing. […] Ten minutes later, chemiluminescence was measured using a plate reader (Envision 2104 Multilabel Reader, Perkin Elmer), and GARP-bound Fab was isolated.

Positions count from the first letter of the chain named.

In experiment [1], human IgG (antibody) had a percent of CD4-positive cells in Q2 (GARP-positive, Foxp3-positive) of 0.039% and a percent of CD4-positive cells in Q3 (GARP-positive, Foxp3-negative) of 0.242%.

“Alexa Fluor 647-labeled anti-GARP antibody (G14D9, eBioscience)” showed a percent of cells in the lower right quadrant (GARP-positive, Foxp3-negative) in experiment [2] of 0.81. Moreover, the percent of cells in the upper right quadrant (GARP-positive, Foxp3-positive) in experiment [3] stood at 4.19.

B1: human chimeric 151D antibody c151D (antibody, human IgG1, V domains shown)
VH: EVQLVESGGGLVQPGRSKKLSCSASGFTFSNYYMAWVRQAPTQGLEWVASIGTVGGNTYYRDSVKGRFTISRDDAKSTLYLQMDSLRSEDTATYYCAREDYGGFPHWGQGVMVTVSS
VL: NIVMTQSPTSMFISVGDRVTMNCKASQNVGTNVDWYQQKTGQSPKLLIYGASNRYTGVPDRFTGSGSGTDFTLTISNMQAEDLAVYDCLQYKYNPYTFGTGTKLELNR
As for B1, in experiment [4], the Kd is 0.47 nM.

B2: humanized anti-human GARP antibody h198D-H3L4 (antibody, human IgG1, kappa, V domains shown)
VH: EVQLVESGGGLVKPSQTLSLTCTVSGFSLTSFHVSWVRQPPGKGLEWIATISSGGGTYYNPSLKSRVTISRDTSKNQVSLKLSSVTAADTAVYYCARISGWGHYYVMDVWGQGTLVTVSS
VL: DIQMTQSPSSLSASVGDRVTITCQASEDIYSGLAWYQQKPGKSPKLLIYGAGSLQDGVPSRFSGSGSGTHYTLTISSLQPEDFATYFCQQGLKFPLTFGQGTKVEIKR
notes: Produced in Potelligent CHOK1SV cells; also called MACA-1983a
With B2, the Kd in experiment [5] was 0.088 nM. For the same molecule, in experiment [6], the “percent of CD4-positive cells in Q2 (GARP-positive, Foxp3-positive)” value (shortened to “percent of CD4-positive cells in Q2”) turned out to be 3.47% and the “percent of CD4-positive cells in Q3 (GARP-positive, Foxp3-negative)” value (“percent of CD4-positive cells in Q3” for short) was 3.25%.

B3: 110F antibody (antibody, human IgG1, lambda, V domains shown)
VH: EVQLLESGGGLVQPGGSLRLSCAASGFTFSSYGMHWVRQAPGKGLEWVAGISWNSAITVYADSVKGRFTISRDNSKNTLYLQMNSLRAEDTAVYYCAKDAGGRYSGSYYFDYWGQGTLVTVSS
VL: QSVLTQPPSASGTPGQRVTISCTGSSSNIGAGYDVHWYQQLPGTAPKLLIYGNSNRPSGVPDRFSGSKSGTSASLAISGLRSEDEADYYCQSYDRSLNWVFGGGTKLTVLG
Consider B3, for which the binding result in experiment [7] was “binds”.

B4: 110F Fab (ELISA-positive clone from the n-CoDeR Fab phage library) (Fab, V domains shown)
VH: B3 VH
VL: B3 VL
notes: Fab produced in Escherichia coli and tested as culture supernatant
For the molecule B4, the binding result in experiment [8] is given as “binds”.

B5: human chimeric 198D antibody c198D (antibody, human IgG1, V domains shown)
VH: QVQLRESGPGLVQPSQTLSLTCTVSGFSLTSFHVSWVRQPPEKGLEWIATISSGGGTYYNSALKSRLSISRDTSKSQVFLKMSTLQTEDTAMYFCARISGWGHYYVMDVWGQGASVTVSS
VL: DIQMTQSPASLSGSLGETVTIQCQASEDIYSGLAWYQQKPGKSPQLLIYGAGSLQDGVPSRFSGGGSGTHYSLKISSMQTEDEGVYFCQQGLKFPLTFGSGTKLEIKR
Regarding B5, in experiment [4], the Kd worked out at 0.17 nM.

B6: humanized anti-human GARP antibody h151D-H1L1 (antibody, human IgG1, kappa, V domains shown)
VH: EVQLVESGGGLVQPGGSLRLSCAASGFTFSNYYMAWVRQAPGKGLEWVSSIGTVGGNTYYADSVKGRFTISRDDSKNTLYLQMNSLRAEDTAVYYCAREDYGGFPHWGQGTLVTVSS
VL: NIVMTQSPDSLAVSLGERATINCKASQNVGTNVDWYQQKPGQSPKLLIYGASNRYTGVPDRFSGSGSGTDFTLTISSLQAEDVAVYDCLQYKYNPYTFGQGTKVEIKR
notes: Produced in Potelligent CHOK1SV cells; also called MACA-1511a
On to B6, for which, in experiment [5], the Kd was determined as 1.8 nM. In experiment [6], the “percent of CD4-positive cells in Q2” value was found to be 3.54% and the “percent of CD4-positive cells in Q3” value turned out to be 2.41%.

B7: humanized anti-human GARP antibody h151D-H4L4 (antibody, human IgG1, kappa, V domains shown)
VH: B6 VH with S49A, A61R, N77S
VL: B6 VL with D9S, A12S, V13A, L15V, E17D, A19V, Q42K, A80P, V83F, V85T
notes: Produced in Potelligent CHOK1SV cells; also called MACA-1514a
For B7, the Kd in experiment [5] turned out to be 1.2 nM. Moreover, in experiment [6], the “percent of CD4-positive cells in Q2” value is 3.38% and the “percent of CD4-positive cells in Q3” value amounted to 2.59%.
